In US6300131, “Telomerase-associated proteins” (Johns Hopkins University, dated 2001):

Molecular target: ribosomal associated protein L22 (human, UniProt P35268)
Assay: co-immunoprecipitation from 293 cell lysate, Western blot
Method: Multi-tissue northern blots (Clontech) were hybridized with a 0.7 kb BamHI-EcoRI hStau cDNA probe according to the manufacturer's procedures. In particular, blots were hybridized at 68° C. in ExpressHyb solution (Clontech) for 1 hour with shaking. Blots were washed several times in 2×SSC, 0.05% SDS at room temperature, with a final wash in 0.1×SSC and 0.1% SDS at 60° C. for about 40 minutes. The blots then were re-probed with an actin probe without stripping the hStau signal. Signal intensity was quantified on a BAS 1500 PhosphorImager system (Fuji Medical System, Inc, Stamford, Conn.).

B1: human staufen (hStau) polypeptide (other)
chain: MKLGKKPMYKPVDPYSRMRSTYNYNMRGGAYPPRYFYPFPVPPLLYQVELSVGGQQFNGKGKTRQAAKHDAAAKALRILQNEPLPERLEVNGRESEEENLNKSEISQVFEIALKRNLPVNFEVARESGPPHMKNFVTKVSVGEFVGEGEGKSKKISKKNAAIAVLEELKKLPPLPAVERVKPRIKKKTKPIVKPQTSPEYGQGINPISRLAQIQQAKKEKEPEYTLLTERGLPRRREFVMQVKVGNHTAEGTGTNKKVAKRNAAENMLEILGFKVPQAQPTKPALKSEEKTPIKKPGDGRKVTFFEPGSGDENGTSNKEDEFRMPYLSHQQLPAGILPMVPEVAQAVGVSQGHHTKDFTRAAPNPAKATVTAMIARELLYGGTSPTAETILKNNISSGHVPHGPLTRPSEQLDYLSRVQGFQVEYKDFPKNNKNEFVSLINCSSQPPLISHGIGKDVESCHDMAALNILKLLSELDQQSTEMPRTGNGPMSVCGRC
B1: no binding.
